We go through 91 sequences from the supplement of paper PMC9112550, “Optimization of the antimicrobial peptide Bac7 by deep mutational scanning” (BMC Biology, 2022).

This series deals with Escherichia coli TOP10. Description: shrunken log2 fold change of peptide-encoding DNA abundance (4.5 h post-induction vs induction); higher = less antimicrobial activity (less host growth inhibition). To be noted: time post-induction: 4.5 h; library: site-saturation at positions 5, 18, 19, 20.
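Further: peptides expressed intracellularly from a pBAD plasmid library in pooled LB shake-flask culture, induced with 0.3% L-arabinose, DNA abundance read by NGS, three biological replicates, DESeq2 with apeglm shrinkage.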

Turning to RRIRGRPPRLPRPRPRPKARPRP, the “shrunken log2 fold change” value came to 0.208.
RRIRYRPPRLPRPRPRPMITPRP: the “shrunken log2 fold change” value is -0.386.
Turning to RRIRVRPPRLPRPRPRPSECPRP, the “shrunken log2 fold change” value turned out to be 0.0274.
Turning to RRIRERPPRLPRPRPRPNIRPRP, the “shrunken log2 fold change” value is -0.273.
With RRIRWRPPRLPRPRPRPYGQPRP, the “shrunken log2 fold change” value was determined as 0.051.
For RRIRGRPPRLPRPRPRPQHMPRP, the “shrunken log2 fold change” value was determined as 0.231.
Regarding RRIRYRPPRLPRPRPRPFSEPRP, the “shrunken log2 fold change” value worked out at 0.41.
In the case of RRIRFRPPRLPRPRPRPLTQPRP it was -0.155; in that of RRIRKRPPRLPRPRPRPTNTPRP, 1.79.
For the sequence RRIRARPPRLPRPRPRPSFYPRP, the “shrunken log2 fold change” value was -0.155.
For RRIRERPPRLPRPRPRPMWSPRP, the “shrunken log2 fold change” value was -0.351.
Turning to RRIRSRPPRLPRPRPRPFDFPRP, the “shrunken log2 fold change” value is -0.241.
In the case of RRIRARPPRLPRPRPRPITTPRP it was 0.1.
On to RRIRNRPPRLPRPRPRPLSQPRP, for which the “shrunken log2 fold change” value was -0.00581.
The result for RRIRPRPPRLPRPRPRPSGKPRP reads -0.247.
For RRIRGRPPRLPRPRPRPNAYPRP, the “shrunken log2 fold change” value was 0.426.
Turning to RRIRRRPPRLPRPRPRPFAWPRP, the “shrunken log2 fold change” value was 0.189.
For RRIRLRPPRLPRPRPRPKHTPRP, the “shrunken log2 fold change” value is 0.228.
Turning to RRIRLRPPRLPRPRPRPPLCPRP, the “shrunken log2 fold change” value was found to be 0.162.
In the case of RRIRMRPPRLPRPRPRPSAMPRP, the “shrunken log2 fold change” value amounted to 1.44.
Consider RRIRRRPPRLPRPRPRPYRKPRP, for which the “shrunken log2 fold change” value is 0.0779.
In the case of RRIRTRPPRLPRPRPRPIVGPRP, the “shrunken log2 fold change” value was -0.0587.
In the case of RRIRWRPPRLPRPRPRPRNWPRP it was 0.172.
In the case of RRIRTRPPRLPRPRPRPPHFPRP, the “shrunken log2 fold change” value was found to be 0.7.
RRIRIRPPRLPRPRPRPHTHPRP: the “shrunken log2 fold change” value was -0.92.
In the case of RRIRERPPRLPRPRPRPIIIPRP it was -0.0562; in that of RRIRTRPPRLPRPRPRPLMVPRP, -0.32; in that of RRIRMRPPRLPRPRPRPMQDPRP, 1.14.
As to RRIRCRPPRLPRPRPRPSVAPRP, the “shrunken log2 fold change” value is -0.276.
In the case of RRIRMRPPRLPRPRPRPFFCPRP it was 0.0186; in that of RRIRPRPPRLPRPRPRPVVVPRP, -0.0997; in that of RRIRQRPPRLPRPRPRPEEKPRP, 0.00355.
With RRIRVRPPRLPRPRPRPRYPPRP, the “shrunken log2 fold change” value was -0.294.
RRIRYRPPRLPRPRPRPWGTPRP: the “shrunken log2 fold change” value is -0.0285.
For the sequence RRIRQRPPRLPRPRPRPEGQPRP, the “shrunken log2 fold change” value is -0.0666.
Turning to RRIRIRPPRLPRPRPRPAHNPRP, the “shrunken log2 fold change” value is -0.271.
Turning to RRIRTRPPRLPRPRPRPKLEPRP, the “shrunken log2 fold change” value is -0.0598.
The result for RRIRRRPPRLPRPRPRPCQSPRP reads 0.0448.
As to RRIRWRPPRLPRPRPRPQIHPRP, the “shrunken log2 fold change” value was -0.681.
In the case of RRIRQRPPRLPRPRPRPHCCPRP it was -0.0421; in that of RRIRQRPPRLPRPRPRPKTTPRP, -0.636.
With RRIRERPPRLPRPRPRPRMCPRP, the “shrunken log2 fold change” value was -0.0502.
With RRIRYRPPRLPRPRPRPGPLPRP, the “shrunken log2 fold change” value was -0.151.
In the case of RRIRARPPRLPRPRPRPRPFPRP, the “shrunken log2 fold change” value stood at 0.562.
As to RRIRDRPPRLPRPRPRPVCNPRP, the “shrunken log2 fold change” value turned out to be 0.861.
In the case of RRIRVRPPRLPRPRPRPMNWPRP it was -0.474; in that of RRIRKRPPRLPRPRPRPECGPRP, 1.01; in that of RRIRNRPPRLPRPRPRPCIFPRP, -0.697.
In the case of RRIRCRPPRLPRPRPRPIWSPRP it was 0.162; in that of RRIRWRPPRLPRPRPRPDYPPRP, -0.169.
Turning to RRIRCRPPRLPRPRPRPEIWPRP, the “shrunken log2 fold change” value was determined as 0.471.
Consider RRIRFRPPRLPRPRPRPWHCPRP, for which the “shrunken log2 fold change” value was -0.028.
In the case of RRIRSRPPRLPRPRPRPYGFPRP it was -0.85; in that of RRIRYRPPRLPRPRPRPLDQPRP, -0.169; in that of RRIRQRPPRLPRPRPRPISHPRP, -0.421.
Consider RRIRVRPPRLPRPRPRPASCPRP, for which the “shrunken log2 fold change” value is -0.0873.
For the sequence RRIRPRPPRLPRPRPRPRNLPRP, the “shrunken log2 fold change” value worked out at 0.067.
In the case of RRIRHRPPRLPRPRPRPPEGPRP, the “shrunken log2 fold change” value was found to be 0.168.
For RRIRMRPPRLPRPRPRPVHYPRP, the “shrunken log2 fold change” value was -0.0505.
The result for RRIRYRPPRLPRPRPRPGGVPRP reads -0.332; that for RRIRYRPPRLPRPRPRPPLQPRP, 0.187; that for RRIRFRPPRLPRPRPRPPMKPRP, 0.0021.
Take RRIRVRPPRLPRPRPRPRPWPRP: the “shrunken log2 fold change” value is 0.178.
On to RRIRQRPPRLPRPRPRPNQHPRP, for which the “shrunken log2 fold change” value was 0.0696.
As for RRIRHRPPRLPRPRPRPLAPPRP, the “shrunken log2 fold change” value turned out to be 0.196.
With RRIRQRPPRLPRPRPRPCHEPRP, the “shrunken log2 fold change” value is -0.0663.
Regarding RRIRIRPPRLPRPRPRPQMCPRP, the “shrunken log2 fold change” value is 0.0648.
For the sequence RRIRMRPPRLPRPRPRPPNHPRP, the “shrunken log2 fold change” value worked out at 0.206.
In the case of RRIRQRPPRLPRPRPRPTWVPRP, the “shrunken log2 fold change” value was determined as 2.03.
With RRIRCRPPRLPRPRPRPFCTPRP, the “shrunken log2 fold change” value is -0.401.
Take RRIRPRPPRLPRPRPRPVSEPRP: the “shrunken log2 fold change” value was -0.0288.
For the sequence RRIRPRPPRLPRPRPRPGAYPRP, the “shrunken log2 fold change” value stood at 0.0679.
In the case of RRIRYRPPRLPRPRPRPPLPPRP it was 0.184; in that of RRIRSRPPRLPRPRPRPGQIPRP, -0.227.
For the sequence RRIRDRPPRLPRPRPRPGLRPRP, the “shrunken log2 fold change” value was 0.277.
For RRIRVRPPRLPRPRPRPTTEPRP, the “shrunken log2 fold change” value amounted to 0.14.
The result for RRIRYRPPRLPRPRPRPSGVPRP reads -0.0951; that for RRIRMRPPRLPRPRPRPHHGPRP, -0.762.
The result for RRIRPRPPRLPRPRPRPFQPPRP reads -0.0843; that for RRIRHRPPRLPRPRPRPIAIPRP, 0.0123.
RRIRARPPRLPRPRPRPAFHPRP: the “shrunken log2 fold change” value was -0.115.
RRIRKRPPRLPRPRPRPEKGPRP: the “shrunken log2 fold change” value is -0.00382.
For the sequence RRIRWRPPRLPRPRPRPVVRPRP, the “shrunken log2 fold change” value came to 0.405.
With RRIRWRPPRLPRPRPRPIWYPRP, the “shrunken log2 fold change” value is -0.149.
In the case of RRIRWRPPRLPRPRPRPRRDPRP it was 0.243; in that of RRIRGRPPRLPRPRPRPWYGPRP, -0.242.
RRIRYRPPRLPRPRPRPAKVPRP: the “shrunken log2 fold change” value is 0.00738.
RRIRIRPPRLPRPRPRPKEDPRP: the “shrunken log2 fold change” value is -0.327.
Regarding RRIRERPPRLPRPRPRPYGLPRP, the “shrunken log2 fold change” value was -0.0303.
With RRIRPRPPRLPRPRPRPYENPRP, the “shrunken log2 fold change” value was -0.66.
The result for RRIRKRPPRLPRPRPRPVAHPRP reads 0.353.
